The target in the test is myc tagged version of gp96 (UniProt P14625). The test can be described thus: pull-down; gp96-myc held on anti-myc agarose beads (Pierce c-Myc Tag IP/Co-IP kit); mixed with 10^8 DRP of purified BAAV or AAV4 vector; 4 °C for 1 h; extensive washes with TBS-T in spin columns; bound vector DNA quantified by qPCR; fold change relative to vector bound to GFP beads; n = 3. Background: Quantitative PCR measures a nucleic acid by following its amplification.
UniProt P14625, sequence (P14625 22-803): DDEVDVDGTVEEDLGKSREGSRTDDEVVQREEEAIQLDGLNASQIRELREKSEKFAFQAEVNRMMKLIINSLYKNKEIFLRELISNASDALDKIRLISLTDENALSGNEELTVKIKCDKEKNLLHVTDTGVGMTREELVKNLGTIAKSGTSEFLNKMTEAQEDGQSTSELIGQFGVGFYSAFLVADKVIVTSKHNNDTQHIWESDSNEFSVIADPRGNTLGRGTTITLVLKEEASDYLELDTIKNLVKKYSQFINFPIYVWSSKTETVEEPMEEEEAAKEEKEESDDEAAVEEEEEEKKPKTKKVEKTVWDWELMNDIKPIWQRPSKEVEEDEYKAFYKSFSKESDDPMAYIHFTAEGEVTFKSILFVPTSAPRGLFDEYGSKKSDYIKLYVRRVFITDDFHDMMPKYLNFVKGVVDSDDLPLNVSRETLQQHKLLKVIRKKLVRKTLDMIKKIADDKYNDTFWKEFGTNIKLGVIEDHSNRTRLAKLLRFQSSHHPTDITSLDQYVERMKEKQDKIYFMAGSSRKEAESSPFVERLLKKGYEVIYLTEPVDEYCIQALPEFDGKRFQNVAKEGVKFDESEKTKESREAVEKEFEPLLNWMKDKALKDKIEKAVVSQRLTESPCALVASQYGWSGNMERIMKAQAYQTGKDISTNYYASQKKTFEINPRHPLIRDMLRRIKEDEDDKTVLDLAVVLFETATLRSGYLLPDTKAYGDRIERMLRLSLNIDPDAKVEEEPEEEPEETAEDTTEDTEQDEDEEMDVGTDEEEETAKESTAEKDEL

For the substance “recombinant bovine adeno-associated virus (BAAV) vector particles containing the CMV-GFP expression cassette (complex)”, the fold increase in bound vector against control GFP or TRPC1 beads lay within 2 to 3 fold.

(Values after publication PMC2834734.)
